The target of data set [1] is Swedish mutant APP (βAPP 751 sw) expressed from pohCK751 in 293T cells, P05067.
Data set [2] deals with wild-type APP (βAPP 751) expressed from pohCK751 in 293T cells, P05067.
In data set [3] the target is MBP-C125sw fusion protein [MBP: P0AEX9].

Swedish mutant APP (βAPP 751 sw) expressed from pohCK751 in 293T cells, P05067, sequence (P05067 whole entry, looked up, change not shown): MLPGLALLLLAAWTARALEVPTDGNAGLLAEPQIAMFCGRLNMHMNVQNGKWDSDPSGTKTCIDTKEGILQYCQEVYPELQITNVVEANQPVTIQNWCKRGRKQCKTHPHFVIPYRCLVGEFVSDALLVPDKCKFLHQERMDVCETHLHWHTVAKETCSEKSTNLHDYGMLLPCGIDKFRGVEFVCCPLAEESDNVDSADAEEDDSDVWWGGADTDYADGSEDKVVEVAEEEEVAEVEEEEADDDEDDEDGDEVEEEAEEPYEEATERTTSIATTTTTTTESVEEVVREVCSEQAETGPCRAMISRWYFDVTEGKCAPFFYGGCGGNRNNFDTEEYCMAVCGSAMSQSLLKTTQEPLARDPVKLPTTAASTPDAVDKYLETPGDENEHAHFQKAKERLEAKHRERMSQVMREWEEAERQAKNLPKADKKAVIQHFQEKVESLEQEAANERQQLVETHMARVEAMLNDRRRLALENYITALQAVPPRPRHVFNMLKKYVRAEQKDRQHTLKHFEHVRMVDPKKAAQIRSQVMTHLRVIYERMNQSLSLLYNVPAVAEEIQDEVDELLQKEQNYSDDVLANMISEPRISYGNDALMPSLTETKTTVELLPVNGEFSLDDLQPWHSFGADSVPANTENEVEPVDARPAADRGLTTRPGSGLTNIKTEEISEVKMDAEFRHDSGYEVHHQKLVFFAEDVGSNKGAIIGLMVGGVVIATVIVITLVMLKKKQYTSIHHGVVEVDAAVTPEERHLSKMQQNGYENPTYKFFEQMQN
wild-type APP (βAPP 751) expressed from pohCK751 in 293T cells, P05067, sequence (P05067 whole entry, looked up, the tested form may be a part): as the sequence (P05067 whole entry, looked up, change not shown) above

B1: recombinant full-length human β-secretase (1-501) expressed from pCEK clone 27 / pCFβA2 in 293T or Cos A2 cells (protein)
chain: ETDEEPEEPGRRGSFVEMVDNLRGKSGQGYYVEMTVGSPPQTLNILVDTGSSNFAVGAAPHPFLHRYYQRQLSSTYRDLRKGVYVPYTQGKWEGELGTDLVSIPHGPNVTVRANIAAITESDKFFINGSNWEGILGLAYAEIARPDDSLEPFFDSLVKQTHVPNLFSLQLCGAGFPLNQSEVLASVGGSMIIGGIDHSLYTGSLWYTPIRREWYYEVIIVRVEINGQDLKMDCKEYNYDKSIVDSGTTNLRLPKKVFEAAVKSIKAASSTEKFPDGFWLGEQLVCWQAGTTPWNIFPVISLYLMGEVTNQSFRITILPQQYLRPVEDVATSQDDCYKFAISQSSTGTVMGAVIMEGFYVVFDRARKRIGFAVSACHVHDEFRTAAVEGPFVTLDMEDCGYNIPQTDESTLMTIAYVMAAICALFMLPLCLMVCQWRCLRCLRQQHDDFADDISLLK
For the protein B1, the “Aβ(x-40) production, ELISA of conditioned media” value is “approximate 2-fold increase in Aβ(x-40)” in data set [1] and “approximately 8-fold increase in Aβ(x-40) production” in data set [2].

B2: naturally occurring human β-secretase purified from human brain (protein)
chain: B1 chain
Protein B2 gave a Specific Activity (MBP-C125 sw assay), Anion Exchange Pool (nM/h/µg prot.) in data set [3] of 1.49e+06.

B3: FLp501, full length recombinant β-secretase having a C-terminal flag sequence (protein)
chain: ETDEEPEEPGRRGSFVEMVDNLRGKSGQGYYVEMTVGSPPQTLNILVDTGSSNFAVGAAPHPFLHRYYQRQLSSTYRDLRKGVYVPYTQGKWEGELGTDLVSIPHGPNVTVRANIAAITESDKFFINGSNWEGILGLAYAEIARPDDSLEPFFDSLVKQTHVPNLFSLQLCGAGFPLNQSEVLASVGGSMIIGGIDHSLYTGSLWYTPIRREWYYEVIIVRVEINGQDLKMDCKEYNYDKSIVDSGTTNLRLPKKVFEAAVKSIKAASSTEKFPDGFWLGEQLVCWQAGTTPWNIFPVISLYLMGEVTNQSFRITILPQQYLRPVEDVATSQDDCYKFAISQSSTGTVMGAVIMEGFYVVFDRARKRIGFAVSACHVHDEFRTAAVEGPFVTLDMEDCGYNIPQTDESTLMTIAYVMAAICALFMLPLCLMVCQWRCLRCLRQQHDDFADDISLLKYKDDDDK
As for B3, in data set [3], the cleavage of substrate result is recorded as “Both enzymes exhibited activity in cleaving β-secretase substrates such as MBP-C125”.

B4: 452stop, recombinant β-secretase truncated at position 452 (1-452) (protein)
chain: ETDEEPEEPGRRGSFVEMVDNLRGKSGQGYYVEMTVGSPPQTLNILVDTGSSNFAVGAAPHPFLHRYYQRQLSSTYRDLRKGVYVPYTQGKWEGELGTDLVSIPHGPNVTVRANIAAITESDKFFINGSNWEGILGLAYAEIARPDDSLEPFFDSLVKQTHVPNLFSLQLCGAGFPLNQSEVLASVGGSMIIGGIDHSLYTGSLWYTPIRREWYYEVIIVRVEINGQDLKMDCKEYNYDKSIVDSGTTNLRLPKKVFEAAVKSIKAASSTEKFPDGFWLGEQLVCWQAGTTPWNIFPVISLYLMGEVTNQSFRITILPQQYLRPVEDVATSQDDCYKFAISQSSTGTVMGAVIMEGFYVVFDRARKRIGFAVSACHVHDEFRTAAVEGPFVTLDMEDCGYNIPQTDEYKDDDDK
For the protein B4, the cleavage of substrate entry in data set [3] was “The C-terminal truncated form of the enzyme exhibited activity in leaving the MBP-C125sw substrate as well as the P26-P4′ substrate”.

Source of the values: US6627739.
